Experimental data published in the Immune Epitope Database (IEDB).

How the values were obtained:
Assay in all cases: IEDB peptide-MHC binding, purified MHC/competitive/radioactivity; filed as Kd, often an IC50 or EC50 that approximates it; ≥ and ≤ were set here for values at or beyond the usual limits of such assays
HLA-A*02:03 = target: HLA-A*02:03
HLA-A*02:02 = target: HLA-A*02:02
HLA-A*02:06 = target: HLA-A*02:06
HLA-A*11:01 = target: HLA-A*11:01
HLA-A*03:01 = target: HLA-A*03:01
HLA-A*33:01 = target: HLA-A*33:01
HLA-A*68:01 = target: HLA-A*68:01
HLA-A*31:01 = target: HLA-A*31:01
[1] = source organism: SARS coronavirus Tor2
[2] = source organism: Lymphocytic choriomeningitis virus (strain Armstrong)
[3] = source organism: Vaccinia virus WR
[4] = source organism: Dengue virus 4 Philippines/H241/1956
[5] = source organism: Dengue virus 2 Jamaica/1409/1983
[6] = source organism: Lymphocytic choriomeningitis virus (strain WE)
[7] = source organism: Mammarenavirus brazilense

Sequence | Kd (HLA-A*11:01; [3]) [µM] | Kd (HLA-A*03:01; [3]) [µM] | Kd (HLA-A*33:01; [3]) [µM] | Kd (HLA-A*68:01; [3]) [µM] | Kd (HLA-A*31:01; [3]) [µM] | other results
ALIARCWYL |  |  |  |  |  | Kd (HLA-A*02:03; [1]): 0.0171 µM; Kd (HLA-A*02:02; [1]): 0.000196 µM; Kd (HLA-A*02:06; [1]): 0.000982 µM
ALMDLLMFS |  |  |  |  |  | Kd (HLA-A*02:03; [2]): 0.103 µM; Kd (HLA-A*02:02; [2]): 0.000936 µM; Kd (HLA-A*02:06; [2]): 0.0138 µM
ALTDVEKRI |  |  |  |  |  | Kd (HLA-A*02:03; [3]): 1.49 µM; Kd (HLA-A*02:02; [3]): 0.0742 µM; Kd (HLA-A*02:06; [3]): 14.4 µM
AQFLYLYAL |  |  |  |  |  | Kd (HLA-A*02:03; [1]): 0.00623 µM; Kd (HLA-A*02:02; [1]): 0.00092 µM; Kd (HLA-A*02:06; [1]): 0.000346 µM
AVITETIPI |  |  |  |  |  | Kd (HLA-A*02:03; [3]): 0.0431 µM; Kd (HLA-A*02:02; [3]): 0.324 µM; Kd (HLA-A*02:06; [3]): 0.00646 µM
DIMTSTRTI |  |  |  |  |  | Kd (HLA-A*02:03; [3]): 0.0786 µM; Kd (HLA-A*02:02; [3]): 3.45 µM; Kd (HLA-A*02:06; [3]): ≥ 21.8 µM
DTCGASINIT |  |  |  |  |  | Kd (HLA-A*02:03; [3]): ≥ 70.4 µM; Kd (HLA-A*02:02; [3]): ≥ 23.6 µM; Kd (HLA-A*02:06; [3]): ≥ 69.8 µM
DTCLLAISAV |  |  |  |  |  | Kd (HLA-A*02:03; [3]): 0.0931 µM; Kd (HLA-A*02:02; [3]): 2.46 µM; Kd (HLA-A*02:06; [3]): 0.106 µM
DTDIVNNFI |  |  |  |  |  | Kd (HLA-A*02:03; [3]): 19.4 µM; Kd (HLA-A*02:02; [3]): 9.32 µM; Kd (HLA-A*02:06; [3]): 15.7 µM
ELAAHQKKI |  |  |  |  |  | Kd (HLA-A*02:03; source organism: Homo sapiens): 2.65 µM
ETKRNIARHL |  |  |  |  |  | Kd (HLA-A*02:03; [3]): 12.4 µM; Kd (HLA-A*02:02; [3]): ≥ 50 µM; Kd (HLA-A*02:06; [3]): ≥ 69.8 µM
FLAHLQWFA |  |  |  |  |  | Kd (HLA-A*02:03; [1]): 0.000207 µM; Kd (HLA-A*02:02; [1]): 0.000104 µM; Kd (HLA-A*02:06; [1]): 0.000574 µM
FTILEYLYI |  |  |  |  |  | Kd (HLA-A*02:03; [3]): 0.169 µM; Kd (HLA-A*02:02; [3]): 1.56 µM; Kd (HLA-A*02:06; [3]): 0.267 µM
GLFGKGGVV |  |  |  |  |  | Kd (HLA-A*02:03; [4]): 0.00995 µM
KLALITVSGL |  |  |  |  |  | Kd (HLA-A*02:03; [4]): 0.00732 µM
KLASAIQKA |  |  |  |  |  | Kd (HLA-A*02:03; [5]): 0.0179 µM
LLALGCYSQV |  |  |  |  |  | Kd (HLA-A*02:03; source organism: Dengue virus 1 Brazil/97-11/1997): 0.0127 µM
LSAGVEFLK |  |  |  |  |  | Kd (HLA-A*11:01; [1]): 0.000171 µM; Kd (HLA-A*03:01; [1]): 0.00941 µM; Kd (HLA-A*33:01; [1]): 8.18 µM; Kd (HLA-A*68:01; [1]): 0.000244 µM; Kd (HLA-A*31:01; [1]): 0.776 µM
MLPESDLDK | 2.08 | 5.64 | ≥ 73.2 | 1.24 | ≥ 36.2 | 
MSAPPAEYK |  |  |  |  |  | Kd (HLA-A*11:01; [1]): 0.000948 µM; Kd (HLA-A*03:01; [1]): 0.00414 µM; Kd (HLA-A*33:01; [1]): 1.86 µM; Kd (HLA-A*68:01; [1]): 0.00236 µM; Kd (HLA-A*31:01; [1]): 0.0378 µM
NAVYQCRKLR | 17.7 | 7.27 | 6.35 | 0.332 | 0.348 | 

Sequence | Kd (HLA-A*11:01; [3]) [µM] | Kd (HLA-A*03:01; [3]) [µM] | Kd (HLA-A*33:01; [3]) [µM] | Kd (HLA-A*68:01; [3]) [µM] | Kd (HLA-A*31:01; [3]) [µM] | other results
NFSIIELPY | 1.07 | 0.716 | ≥ 35 | 3.44 | 6.32 | 
NIERQDYRR | 12 | ≥ 66.8 | 0.924 | 0.119 | 1.5 | 
NIRLTDTEYR | 17.5 | ≥ 70.1 | 0.157 | 0.00139 | 0.059 | 
NQNLIPSTVK | 0.36 | 14.1 | ≥ 70 | 0.406 | ≥ 24.8 | 
NSSIISLFY | 0.0446 | 0.0567 | 7.08 | 0.125 | 5.26 | 
NTILLSDKGK | 0.19 | 0.0966 | 12.4 | 0.00145 | ≥ 20.3 | 
NTVVRDFENY | 0.52 | ≥ 39.7 | ≥ 21.7 | 0.235 | ≥ 70 | 
PLHKYCVNLY | ≥ 25.6 | ≥ 70.1 | 14.4 | 6.57 | ≥ 23.2 | 
PMPYMISTY | ≥ 42.1 | ≥ 45.3 | ≥ 77.7 | 1.34 | ≥ 34.9 | 
PSLEYGANY | ≥ 21.7 | 17.1 | 7.94 | ≥ 60.6 | ≥ 10 | 
PVDTEFINK | 0.0895 | 19.9 | ≥ 41.8 | 3.57 | 12.7 | 
PVVAAIITR |  |  |  |  |  | Kd (HLA-A*11:01; [1]): 1.79 µM; Kd (HLA-A*03:01; [1]): 11.2 µM; Kd (HLA-A*33:01; [1]): 7.79 µM; Kd (HLA-A*68:01; [1]): 0.269 µM; Kd (HLA-A*31:01; [1]): 1.24 µM
QALNSVANR | 0.845 | ≥ 20.2 | 0.104 | 0.0557 | 0.012 | 
QSQMLLIVLK |  |  |  |  |  | Kd (HLA-A*11:01; [1]): 0.0108 µM; Kd (HLA-A*03:01; [1]): 1.62 µM; Kd (HLA-A*33:01; [1]): 11.7 µM; Kd (HLA-A*68:01; [1]): 0.207 µM; Kd (HLA-A*31:01; [1]): 1.41 µM
QSYRQYRNY | 1.6 | 2.56 | 0.109 | 17.1 | 2.27 | 
RQLFKPLTKK |  |  |  |  |  | Kd (HLA-A*11:01; [1]): 0.00816 µM; Kd (HLA-A*03:01; [1]): 0.00105 µM; Kd (HLA-A*33:01; [1]): 3.67 µM; Kd (HLA-A*68:01; [1]): 2.13 µM; Kd (HLA-A*31:01; [1]): 0.383 µM
RQQLEDIFMR | 10.2 | 4.83 | ≥ 58.8 | 2.56 | 7 | 
RVILAGPMPV |  |  |  |  |  | Kd (HLA-A*02:03; [5]): 0.00776 µM; Kd (HLA-A*02:06; [5]): 0.0319 µM
SAYLISIFLH |  |  |  |  |  | Kd (HLA-A*11:01; [6]): 5.45 µM; Kd (HLA-A*03:01; [6]): 0.668 µM; Kd (HLA-A*33:01; [6]): 0.874 µM; Kd (HLA-A*68:01; [6]): ≥ 30.9 µM; Kd (HLA-A*31:01; [6]): 0.25 µM
SCMVNHSTYY |  |  |  |  |  | Kd (HLA-A*11:01; [7]): 16.7 µM; Kd (HLA-A*03:01; [7]): 0.1 µM; Kd (HLA-A*33:01; [7]): 8.99 µM; Kd (HLA-A*68:01; [7]): 15.9 µM; Kd (HLA-A*31:01; [7]): 7.41 µM
